Experimental data: patent publication US20240092919A1 (Ablynx, published 2024)
Several values for one entry are separate records, joined by “and”; a condition that tells them apart may be missing. Equal values may be shown once.

Experiments:
human CD123 on cells [1] = molecular target: human CD123 on cells (human, UniProt P26951 19-378); test: cell-based or functional assay
human CD33 on cells [2] = molecular target: human CD33 on cells (human, UniProt P20138 18-364); test: cell-based or functional assay
Target sequence in this assay (P20138 18-364): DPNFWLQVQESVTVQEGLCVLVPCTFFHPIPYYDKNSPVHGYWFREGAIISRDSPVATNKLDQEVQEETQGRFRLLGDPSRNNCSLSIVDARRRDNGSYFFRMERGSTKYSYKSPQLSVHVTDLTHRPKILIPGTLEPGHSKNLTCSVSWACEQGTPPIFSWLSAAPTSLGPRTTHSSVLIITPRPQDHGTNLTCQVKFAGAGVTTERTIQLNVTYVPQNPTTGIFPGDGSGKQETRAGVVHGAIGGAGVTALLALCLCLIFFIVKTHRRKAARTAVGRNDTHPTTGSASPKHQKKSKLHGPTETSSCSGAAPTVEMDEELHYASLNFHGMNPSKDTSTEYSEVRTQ

cynomolgus serum albumin [3] = molecular target: T1, cynomolgus serum albumin (cynomolgus monkey, UniProt A2V9Z4 25-608); test: SPR (ProteOn XPR36, 37°C), albumin immobilised
T1 construct: also called CSA
T1 sequence (A2V9Z4 25-608 limits assumed): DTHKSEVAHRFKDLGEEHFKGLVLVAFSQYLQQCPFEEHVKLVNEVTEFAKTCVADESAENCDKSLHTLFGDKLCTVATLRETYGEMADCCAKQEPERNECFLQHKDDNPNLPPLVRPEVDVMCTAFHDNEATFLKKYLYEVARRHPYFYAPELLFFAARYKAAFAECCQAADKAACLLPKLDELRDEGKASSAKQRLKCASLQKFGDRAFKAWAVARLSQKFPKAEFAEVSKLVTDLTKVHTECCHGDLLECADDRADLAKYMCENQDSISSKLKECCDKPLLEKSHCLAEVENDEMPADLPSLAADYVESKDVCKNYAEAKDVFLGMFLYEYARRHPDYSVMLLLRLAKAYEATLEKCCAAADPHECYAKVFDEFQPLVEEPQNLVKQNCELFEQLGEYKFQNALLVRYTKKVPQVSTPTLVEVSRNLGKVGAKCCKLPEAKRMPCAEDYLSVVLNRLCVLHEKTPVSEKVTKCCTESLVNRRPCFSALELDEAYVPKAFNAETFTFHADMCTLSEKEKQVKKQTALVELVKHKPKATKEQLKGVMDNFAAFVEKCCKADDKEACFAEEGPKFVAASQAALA

human CD123 on cells [4] = molecular target: T2, human CD123 on cells (human, UniProt P26951 19-378); test: flow cytometry on CHO Flp-In huCD123 cells; by paragraph 678 with 30 uM HSA, anti-VHH mAb ABH0077 + APC goat anti-mouse; MFI (mean APC) [panel CHO Flp-In huCD123 cells]
T2 construct: also called CHO human CD123; CHO hu CD123

[5] = molecular target: T3, human TCR on primary human T cells (human, UniProt P01848 1-140; P01850 1-176); test: flow cytometry competition on primary human T cells; competitor FLAG3His6 tagged monovalent TCR ISVD; global (weighted) IC50, n = 4
T3 construct: whole, on cells; also called human TCRαβ
T3 TCR alpha (looked up): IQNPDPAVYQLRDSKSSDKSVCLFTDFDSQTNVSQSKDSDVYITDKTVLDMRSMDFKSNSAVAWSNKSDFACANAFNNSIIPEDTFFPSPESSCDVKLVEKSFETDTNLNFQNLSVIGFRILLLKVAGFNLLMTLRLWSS
T3 TCR beta (looked up): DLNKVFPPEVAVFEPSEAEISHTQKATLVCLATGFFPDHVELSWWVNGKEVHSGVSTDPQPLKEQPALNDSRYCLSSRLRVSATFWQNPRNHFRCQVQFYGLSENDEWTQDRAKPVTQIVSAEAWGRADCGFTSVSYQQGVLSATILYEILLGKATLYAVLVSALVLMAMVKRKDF

[6] = molecular target: T4, cynomolgus TCR on primary cynomolgus T cells (cynomolgus); test: flow cytometry competition on primary cynomolgus T cells; competitor FLAG3His6 tagged monovalent TCR ISVD; global (weighted) IC50, n = 7
T4 construct: whole, on cells; also called cyno TCRαβ

[7] = molecular target: T4, cynomolgus TCR on primary cynomolgus T …; test: cell-based or functional assay
human CD33 on cells [8] = molecular target: T5, human CD33 on cells (human, UniProt P20138 18-364); test: flow cytometry on CHO Flp-In huCD33-long cells; by paragraph 678 with 30 uM HSA, anti-VHH mAb ABH0077 + APC goat anti-mouse; MFI (mean APC) [panel CHO Flp-In huCD33-long cells]
T5 construct: whole, on cells; also called CHO hu CD33; huCD33
T5 sequence (P20138 18-364): as the sequence (P20138 18-364) above

[9] = molecular target: T6, Cynomolgus TCR(AEA41865/AEA41866)-zipper protein (cynomolgus); test: SPR, ProteOn XPR36, 37 C; TCR-zipper coated on GLC chip
T6 construct: also called cyTCR-zipper; cyTCR(AEA41865)-zipper
T6 TCR alpha: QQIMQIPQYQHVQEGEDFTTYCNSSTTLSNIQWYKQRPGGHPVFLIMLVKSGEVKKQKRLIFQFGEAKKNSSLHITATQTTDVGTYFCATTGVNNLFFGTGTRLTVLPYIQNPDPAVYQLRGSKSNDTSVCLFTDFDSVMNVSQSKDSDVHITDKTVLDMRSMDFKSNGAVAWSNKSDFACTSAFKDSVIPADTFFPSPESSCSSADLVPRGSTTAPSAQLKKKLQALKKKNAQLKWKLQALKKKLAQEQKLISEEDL
T6 TCR beta: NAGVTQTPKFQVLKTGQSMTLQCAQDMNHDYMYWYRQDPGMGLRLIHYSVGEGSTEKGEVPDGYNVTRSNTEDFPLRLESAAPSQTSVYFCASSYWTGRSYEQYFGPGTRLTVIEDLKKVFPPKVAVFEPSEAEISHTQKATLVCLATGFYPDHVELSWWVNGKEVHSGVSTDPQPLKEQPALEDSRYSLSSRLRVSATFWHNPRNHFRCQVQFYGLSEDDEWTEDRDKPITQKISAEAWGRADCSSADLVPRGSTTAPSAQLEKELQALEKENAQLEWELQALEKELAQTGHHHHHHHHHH

mouse serum albumin = molecular target: T7, mouse serum albumin (mouse, UniProt P07724 25-608); test: SPR, ProteOn XPR36, 37 C; albumin immobilised by amine coupling
T7 construct: also called MSA
T7 sequence (P07724 25-608 limits assumed): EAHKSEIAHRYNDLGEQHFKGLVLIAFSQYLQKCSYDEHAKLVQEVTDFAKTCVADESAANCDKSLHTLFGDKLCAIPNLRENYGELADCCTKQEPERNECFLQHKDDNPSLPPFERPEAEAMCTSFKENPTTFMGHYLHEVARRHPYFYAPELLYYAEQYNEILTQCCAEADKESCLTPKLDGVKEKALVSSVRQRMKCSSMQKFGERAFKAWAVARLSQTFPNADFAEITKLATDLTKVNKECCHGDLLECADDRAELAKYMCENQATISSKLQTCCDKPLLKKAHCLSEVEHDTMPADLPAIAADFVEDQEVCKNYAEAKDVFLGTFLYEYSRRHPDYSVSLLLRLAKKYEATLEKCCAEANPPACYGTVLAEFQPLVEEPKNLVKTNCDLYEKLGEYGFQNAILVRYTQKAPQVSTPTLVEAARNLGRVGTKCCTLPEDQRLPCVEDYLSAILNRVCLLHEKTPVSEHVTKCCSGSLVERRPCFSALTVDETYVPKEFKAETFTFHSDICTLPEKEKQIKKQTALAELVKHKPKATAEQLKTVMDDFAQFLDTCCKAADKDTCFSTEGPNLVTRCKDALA

human serum albumin = molecular target: T8, human serum albumin (human, UniProt P02768 25-609); test: as above
T8 construct: also called HSA

cynomolgus serum albumin [10] = molecular target: T9, cynomolgus serum albumin (cynomolgus); test: as above
T9 construct: also called CSA
T9 sequence (A2V9Z4 25-608): as the sequence (A2V9Z4 25-608 limits assumed) above

[11] = molecular target: T3, human TCR on primary human T cells; test: cell-based or functional assay
cynomolgus CD33 on cells = cynomolgus CD33 on cells (cynomolgus); test: cell-based or functional assay
[12] = molecular target: cynomolgus CD123 on cells (cynomolgus); test: cell-based or functional assay
huCD33L-Fc = molecular target: T10, huCD33L-Fc (human, UniProt P20138 18-259); test: SPR, ProteOn XPR36, 37 C; CD33L-Fc captured on anti-huIgG (Fc)
T10 construct: also called Human CD33L-Fc; not shown: Fc part, not described (captured by anti-huIgG (Fc))
T10 sequence (P20138 18-259 limits assumed): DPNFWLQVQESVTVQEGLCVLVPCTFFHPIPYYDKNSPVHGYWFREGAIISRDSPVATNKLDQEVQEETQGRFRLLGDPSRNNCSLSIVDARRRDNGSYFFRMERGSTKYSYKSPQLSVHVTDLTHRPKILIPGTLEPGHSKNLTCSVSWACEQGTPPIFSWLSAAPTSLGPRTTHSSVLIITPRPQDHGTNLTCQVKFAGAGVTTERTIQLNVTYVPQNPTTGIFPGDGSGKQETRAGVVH

cyCD33L-Fc = molecular target: T11, cyCD33L-Fc (cynomolgus); test: as above
T11 construct: also called Cynomolgus CD33L-Fc

human CD33 on cells [13] = molecular target: T5, human CD33 on cells; test: cell-based or functional assay; remark: listed apart in the source
human CD123 on cells [14] = molecular target: T2, human CD123 on cells; test: cell-based or functional assay; remark: listed apart in the source
cyCD123-Fc = molecular target: T12, cyCD123-Fc (cynomolgus); test: SPR, ProteOn XPR36, 37 C; CD123-Fc captured on anti-huIgG (Fc)
T12 construct: also called Cynomolgus CD123-Fc

huCD123-Fc = molecular target: T13, huCD123-Fc (human, UniProt P26951 19-305); test: as above
T13 construct: also called Human CD123-Fc; not shown: Fc part, not described (captured by anti-huIgG (Fc))
T13 sequence: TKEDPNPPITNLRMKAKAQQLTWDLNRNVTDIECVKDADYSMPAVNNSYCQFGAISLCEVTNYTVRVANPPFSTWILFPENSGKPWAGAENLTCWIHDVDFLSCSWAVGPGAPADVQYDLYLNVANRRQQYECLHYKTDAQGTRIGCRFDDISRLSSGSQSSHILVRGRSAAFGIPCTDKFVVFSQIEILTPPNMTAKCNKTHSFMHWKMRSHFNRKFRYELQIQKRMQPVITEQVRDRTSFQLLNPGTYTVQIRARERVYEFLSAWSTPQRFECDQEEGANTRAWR

[15] = molecular target: T14, cynomolgus CD123 on cells (cynomolgus); test: flow cytometry on HEK293 cells transfected with cynomolgus CD123
T14 construct: whole, on cells; also called HEK293 cyno CD123; cyCD123

human CD123 on cells [16] = molecular target: T2, human CD123 on cells; test: flow cytometry on CHO Flp-In huCD123 cells; FLAG-tagged ISVD, anti-FLAG + APC goat anti-mouse; MFI (median APC) [panel CHO Flp-In huCD123 cells]
Target sequence in this assay (P26951 19-378 limits assumed): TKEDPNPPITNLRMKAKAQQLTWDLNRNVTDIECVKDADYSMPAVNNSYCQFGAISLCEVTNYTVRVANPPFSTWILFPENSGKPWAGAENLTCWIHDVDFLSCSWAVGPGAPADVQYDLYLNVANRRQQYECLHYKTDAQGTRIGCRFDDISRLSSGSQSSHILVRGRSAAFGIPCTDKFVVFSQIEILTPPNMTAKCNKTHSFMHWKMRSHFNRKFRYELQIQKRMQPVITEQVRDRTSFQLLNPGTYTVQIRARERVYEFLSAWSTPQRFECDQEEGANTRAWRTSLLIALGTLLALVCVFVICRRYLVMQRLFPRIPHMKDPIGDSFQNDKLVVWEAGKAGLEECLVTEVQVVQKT

[17] = molecular target: T14, cynomolgus CD123 on cells; test: flow cytometry on HEK Flp-In cyCD123 cells; FLAG-tagged ISVD, anti-FLAG + APC goat anti-mouse; MFI (median APC) [panel HEK Flp-In cyCD123 cells]
human CD123 on cells [18] = molecular target: T2, human CD123 on cells; test: flow cytometry on CHO cells transfected with human CD123
Target sequence in this assay (P26951 19-378 limits assumed): as above

human GPC3 on cells = molecular target: T15, human GPC3 on cells (human, UniProt P51654 25-554); test: flow cytometry on cells; upper end, tied by Table 44 to CHO huGPC3
T15 construct: whole, on cells; also called CHO huGPC3; CHO-Flp-In cells overexpressing human GPC3

cyno GPC3 on cells = molecular target: T16, cyno GPC3 on cells (cynomolgus monkey, UniProt A0A2K5VK50 24-553); test: flow cytometry on cells; lower end, tied by Table 44 to CHO cyGPC3
T16 construct: whole, on cells; also called CHO cyGPC3; CHO-Flp-In cells overexpressing cyno GPC3

B1: TCRαβ-CD33-CD123 multispecific ISVD construct (other)
chain: DVQLVESGGGVVQPGGSLRLSCVASGYVHKINFYGWYRQAPGKEREKVAHISIGDQTDYADSAKGRFTISRDESKNTVYLQMNSLRPEDTAAYYCRALSRIWPYDYWGQGTLVTVSSGGGGSGGGSEVQLVESGGGVVQPGGSLRLSCAASGGVFRLNSMGWFRQAPGKQRELVAIITSDGDTNYADSVKGRFTISRDQAKNTVYLQMNSLRPEDTALYYCQITYSTSSYSFPINTWGQGTLVTVSSGGGGSGGGSEVQLVESGGGVVQPGGSLRLSCAASGVIFSGNVMGWYRRQAPGKEREWVAAIAEGGSILYRDSVKGRFTISRDNAKNTVYLQMNSLRPEDTALYYCNSHPPVLPYWGQGTLVTVSSGGGGSGGGGSGGGGSGGGGSEVQLVESGGGVVQPGGSLRLSCAASGFTFRSFGMSWVRQAPGKGPEWVSSISGSGSDTLYADSVKGRFTISRDNSKNTLYLQMNSLRPEDTALYYCTIGGSLSRSSQGTLVTVSSA
notes: also called A025001562; CD123-CD33-TCR multispecific ISVD construct
- Global IC50, impedance-based (xCELLigence) human T cell mediated killing of CHO hu CD123 cells (human CD123 on cells [1]): 0.025 nM
- Global IC50, impedance-based (xCELLigence) human T cell mediated killing of CHO hu CD33 cells (human CD33 on cells [2]): 0.054 nM
- binding result (cynomolgus serum albumin [3]): binds

B2: TCRαβ-CD33-CD123 multispecific ISVD construct (SEQ ID NO: 460) (other)
chain: DVQLVESGGGVVQPGGSLRLSCVASGYVHKINFYGWYRQAPGKEREKVAHISIGDQTDYADSAKGRFTISRDESKNTVYLQMNSLRPEDTAAYYCRALSRIWPYDYWGQGTLVTVSSGGGGSGGGSEVQLVESGGGVVQPGGSLRLSCAASGGVFRLNSMGWFRQAPGKQRELVAIITSDGDTNYADSVKGRFTISRDQAKNTVYLQMNSLRPEDTALYYCQITYSTSSYSFPINTWGQGTLVTVSSGGGGSGGGSEVQLVESGGGVVQPGGSLRLSCAASGVIFSGNVMGWYRRQAPGKEREWVAAIAEGGSILYRDSVKGRFTISRDNAKNTVYLQMNSLRPEDTALYYCNSHPPVLPYWGQGTLVTVSSGGGGSGGGGSGGGGSGGGGSEVQLVESGGGVVQPGGSLRLSCAASGFTFRSFGMSWVRQAPGKGPEWVSSISGSGSDTLYADSVKGRFTISRDNSKNTLYLQMNSLRPEDTALYYCTIGGSLSRSSQGTLVTVSSA
notes: also called A025001562; TCR-CD33-CD123
- EC50 (read off the curve) (human CD123 on cells [4]): ~10 nM
- IC50 [5]: 218 nM
- IC50 [6]: 729 nM
- EC50 (M), cynomolgus T cell mediated MOLM-13 cell killing, E:T 10:1 [7]: 1.36e-11 M
- EC50 (read off the curve) (human CD33 on cells [8]): ~70 nM
- Kd [9]: 6.7 nM
- Kd (mouse serum albumin): < 500 nM
- Kd (human serum albumin): 9.7 nM
- Kd (cynomolgus serum albumin [10]): 7.9 nM
- Global EC50 (M), flow cytometry human T cell mediated MOLM-13 cell killing, E:T 10:1, 50 uM HSA (n = 13) [11]: 1.8e-11 M
- IC50 (M), impedance based cynomolgus T cell mediated CHO Flp-In cynoCD33 cell killing, E:T 15:1, 50 uM HSA (cynomolgus CD33 on cells): 6.2e-12 M
- IC50 (M), impedance based cynomolgus T cell mediated CHO Flp-In cynoCD123 cell killing, E:T 15:1, 50 uM HSA [12]: 1.4e-12 M
- Kd (huCD33L-Fc): 7.6 nM
- Kd (cyCD33L-Fc): 6.9 nM
- Global IC50 (M), impedance based human T cell mediated CHO hu CD33 cell killing, E:T 15:1, 50 uM HSA (n = 4) (human CD33 on cells [13]): 1.1e-10 M
- Global IC50 (M), impedance based human T cell mediated CHO hu CD123 cell killing, E:T 15:1, 50 uM HSA (n = 7) (human CD123 on cells [14]): 4.4e-11 M
- Kd (cyCD123-Fc): 2 nM
- Kd (huCD123-Fc): 0.59 nM

B3: monovalent CD123 building block (SEQ ID NO: 462) (VHH)
VHH: EVQLVESGGGVVQPGGSLRLSCAASGVIFSGNVMGWYRRQAPGKEREWVAAIAEGGSILYRDSVKGRFTISRDNAKNTVYLQMNSLRPEDTALYYCNSHPPVLPYWGQGTLVTVSS
- EC50 [15]: 0.8 nM
- EC50 (read off the curve) (human CD123 on cells [16]): ~0.7 nM
- EC50 (read off the curve) [17]: ~0.3 nM
- EC50 (human CD123 on cells [18]): 0.31 nM and 0.2 nM

B4: A022600424 (other)
chain: DVQLVESGGGVVQPGGSLRLSCVASGYVHKINFYGWYRQAPGKEREKVAHISIGDQTDYADSAKGRFTISRDESKNTVYLQMNSLRPEDTAAYYCRALSRIWPYDYWGQGTLVTVSSGGGGSEVQLVESGGGVVQPGGSLRLSCAASGFTFSSFAMTWVRRPPGKGLEWVATITNKGVTSYADSVKGRFTISRDNAKNTLYLQMNSLRPEDTALYICANARRTGPRAPTDIGSYRGQGTLVTVSSGGGGSGGGSEVQLVESGGGVVQPGGSLRLSCAASGSIFRSVFSSSTMEWYRQAPGKKRELVARIAPGEGTYYGALYADSVKGRFTISRDNAKNTVYLQMNSLRPEDTALYYCASGVAWGQGTLVTVSSGGGGSGGGSEVQLVESGGGVVQPGGSLRLSCAASGFTFRSFGMSWVRQAPGKGPEWVSSISGSGSDTLYADSVKGRFTISRDNSKNTLYLQMNSLRPEDTALYYCTIGGSLSRSSQGTLVTVSSA
notes: also called T017000680-5GS-A022600351-9GS-A022600314-9GS-ALB23002-A
- EC50 (human GPC3 on cells): 1 to 2 nM
- EC50 (cyno GPC3 on cells): 1 to 2 nM
